Laboratory results reported in IntAct's records for PubMed 10677492.

B1: Dolichyl-diphosphooligosaccharide--protein glycosyltransferase subunit OST4 (Saccharomyces cerevisiae), Q99380 (parent)
chain: MISDEQLNSLAITFGIVMMTLIVIYHAVDSTMSPKN
partner: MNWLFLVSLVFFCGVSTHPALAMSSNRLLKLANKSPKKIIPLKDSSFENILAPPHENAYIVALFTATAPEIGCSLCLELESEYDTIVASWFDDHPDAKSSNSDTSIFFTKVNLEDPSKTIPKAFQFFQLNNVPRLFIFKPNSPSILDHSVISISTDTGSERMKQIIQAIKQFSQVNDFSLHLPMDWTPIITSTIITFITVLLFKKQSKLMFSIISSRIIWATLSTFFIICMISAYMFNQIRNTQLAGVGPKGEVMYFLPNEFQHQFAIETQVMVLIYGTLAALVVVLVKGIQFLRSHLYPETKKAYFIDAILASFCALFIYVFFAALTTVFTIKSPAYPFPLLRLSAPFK
B2: Dolichyl-diphosphooligosaccharide--protein glycosyltransferase subunit OST4 (Saccharomyces cerevisiae), Q99380 (parent)
chain: B1 chain
partner: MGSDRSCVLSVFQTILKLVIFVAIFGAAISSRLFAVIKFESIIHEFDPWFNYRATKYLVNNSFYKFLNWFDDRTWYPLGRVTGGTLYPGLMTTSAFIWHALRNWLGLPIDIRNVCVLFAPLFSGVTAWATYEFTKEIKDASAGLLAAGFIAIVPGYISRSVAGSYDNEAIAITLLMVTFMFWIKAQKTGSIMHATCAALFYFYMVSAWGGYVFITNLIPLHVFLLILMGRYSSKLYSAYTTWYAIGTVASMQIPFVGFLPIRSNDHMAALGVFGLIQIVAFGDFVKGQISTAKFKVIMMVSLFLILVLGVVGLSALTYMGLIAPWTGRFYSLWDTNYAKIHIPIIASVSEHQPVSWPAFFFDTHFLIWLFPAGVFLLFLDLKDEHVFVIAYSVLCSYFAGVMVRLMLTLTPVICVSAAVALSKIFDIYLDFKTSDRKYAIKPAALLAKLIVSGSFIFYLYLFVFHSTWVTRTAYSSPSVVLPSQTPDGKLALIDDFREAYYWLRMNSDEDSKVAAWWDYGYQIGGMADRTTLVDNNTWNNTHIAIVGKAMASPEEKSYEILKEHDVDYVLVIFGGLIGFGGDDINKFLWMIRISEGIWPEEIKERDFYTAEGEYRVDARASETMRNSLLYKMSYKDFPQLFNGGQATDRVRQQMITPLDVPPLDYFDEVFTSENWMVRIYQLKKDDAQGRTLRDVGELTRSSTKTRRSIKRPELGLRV

Variants of: B1
Conditions: with ost3_yeast OST3, P48439

| Variant | effect of a mutation on the interaction |
| --- | --- |
| MISDEQLNSLAITFGIVKMTLIVIYHAVDSTMSPKN [M18K] | disrupting interaction |
| MISDEQLNSLAITFGIVMKTLIVIYHAVDSTMSPKN [M19K] | disrupting interaction |
| MISDEQLNSLAITFGIVMMKLIVIYHAVDSTMSPKN [T20K] | disrupting interaction |
| MISDEQLNSLAITFGIVMMTKIVIYHAVDSTMSPKN [L21K] | disrupting interaction |
| MISDEQLNSLAITFGIVMMTLIKIYHAVDSTMSPKN [V23K] | disrupting interaction |
| MISDEQLNSLAITFGIVMMTLIVKYHAVDSTMSPKN [I24K] | disrupting interaction |

Variants of: B2
Conditions: with stt3_yeast STT3, P39007

| Variant | effect of a mutation on the interaction |
| --- | --- |
| MISDEQLNSLAITFGIVKMTLIVIYHAVDSTMSPKN [M18K] | disrupting interaction |
| MISDEQLNSLAITFGIVMMTKIVIYHAVDSTMSPKN [L21K] | disrupting interaction |
| MISDEQLNSLAITFGIVMMTLIVKYHAVDSTMSPKN [I24K] | disrupting interaction |
